{
  "source": "patent US20090209427A1",
  "about": "“Microbial glyphosate resistant epsps” (priority 2004, published 2009)",
  "system": "C=C(OP(=O)(O)O)C(=O)O",
  "experiment": "purified protein, by the assay type",
  "settings": "other: C. crescentus EPSPS, 50 mM K+-HEPES pH 7.0, 1 mM shikimate-3-phosphate, varying [14C]PEP",
  "data": [
    {"substance": "Caulobacter crescentus EPSPS, native, SEQ ID NO: 9 (Caulobacter vibrioides CB15)", "values": [
      {"measurement": "Km", "result": 2.0, "unit": "µM"}
    ]}
  ]
}
